One test deals with human L-selectin (human) (UniProt P14151). Briefly: cell-based or functional assay.
A further test deals with CD34 (human) (UniProt P28906). Briefly: cell-based or functional assay.
Sequence of UniProt P28906 (P28906 32-385): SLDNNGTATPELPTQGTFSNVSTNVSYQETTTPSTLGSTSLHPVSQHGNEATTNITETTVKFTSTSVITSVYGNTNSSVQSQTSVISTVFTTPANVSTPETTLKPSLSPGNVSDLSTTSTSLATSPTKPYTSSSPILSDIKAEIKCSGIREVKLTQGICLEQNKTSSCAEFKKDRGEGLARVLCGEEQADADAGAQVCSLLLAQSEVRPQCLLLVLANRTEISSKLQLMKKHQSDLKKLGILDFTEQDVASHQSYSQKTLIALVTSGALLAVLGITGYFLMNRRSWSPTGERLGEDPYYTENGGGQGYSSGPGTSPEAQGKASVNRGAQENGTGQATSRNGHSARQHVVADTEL

As for “anti-human L-selectin antibody (clone DREG56; Thermo Fisher)”, in the test with human L-selectin (human), the reduction of the L-selectin enhanced amount of CD34+ transduction was found to be 79%.
“human L-selectin (from UniProt P14151 39-372) (ligand)”: the transduction of cytokine-stimulated CD34+ cells (% eGFP+ cells) with CD34 (human) worked out at 2 fold.

The values are drawn from patent US20210139932A1.
